Results taken from US20180311348A1 (LUDWIG MAXIMILIANS UNIVERSIT T M NCHEN, published 2018).

B1: SirpIg-SirpIg-anti-CD16-anti-CD33 liCAD (other)
chain: EEELQVIQPDKSVLVAAGETATLRCTATSLIPVGPIQWFRGAGPGRELIYNQKEGHFPRVTTVSDLTKRNNMDFSIRIGNITPADAGTYYCVKFRKGSPDDVEFKSGAGTELSVRAKPSGGGGSGGGGSGGGGSGGGGSEEELQVIQPDKSVLVAAGETATLRCTATSLIPVGPIQWFRGAGPGRELIYNQKEGHFPRVTTVSDLTKRNNMDFSIRIGNITPADAGTYYCVKFRKGSPDDVEFKSGAGTELSVRAKPSGGGGSGGGGSGGGGSGGGGSQVTLKESGPGILQPSQTLSLTCSFSGFSLRTSGMGVGWIRQPSGKGLEWLAHIWWDDDKRYNPALKSRLTISKDTSSNQVFLKIASVDTADTATYYCAQINPAWFAYWGQGTLVTVSAGGGGSGGGGSGGGGSGGGGSDTVLTQSPASLAVSLGQRATISCKASQSVDFDGDSFMNWYQQKPGQPPKLLIYTTSNLESGIPARFSASGSGTDFTLNIHPVEEEDTATYYCQQSNEDPYTFGGGTKLEIKGGGGSGGGGSGGGGSGGGGSDIQLTQSPSTLSASVGDRVTITCRASESLDNYGIRFLTWFQQKPGKAPKLLMYAASNQGSGVPSRFSGSGSGTEFTLTISSLQPDDFATYYCQQTKEVPWSFGQGTKVEVKGGGGSGGGGSGGGGSGGGGSEVQLVQSGAEVKKPGSSVKVSCKASGYTITDSNIHWVRQAPGQSLEWIGYIYPYNGGTDYNQKFKNRATLTVDNPTNTAYMELSSLRSEDTAFYYCVNGNPWLAYWGQGTLVTVSS
B2: αCD33 mAB (antibody, human IgG1)
heavy: not shown
light: DIQLTQSPSTLSASVGDRVTITCRASESLDNYGIRFLTWFQQKPGKAPKLLMYAASNQGSGVPSRFSGSGSGTEFTLTISSLQPDDFATYYCQQTKEVPWSFGQGTKVEVKVAAPSVFIFPPSDEQLKSGTASVVCLLNNFYPREAKVQWKVDNALQSGNSQESVTEQDSKDSTYSLSSTLTLSKADYEKHKVYACEVTHQGLSSPVTKSFNRGEC
notes: Human IgG1/kappa (pFUSE-CHIg-hG1, pFUSE2-CLIg-hk); It was obtained from SIRPα-PreSc-antiCD33 by PreScission cleavage, so residues of the cleavage site may remain at the light chain N-terminus; also called antiCD33 mAb; anti-CD33 mAB (clone hP67.6)
B3: Fc-engineered variant of αCD33 mAB (antibody, human IgG1)
heavy: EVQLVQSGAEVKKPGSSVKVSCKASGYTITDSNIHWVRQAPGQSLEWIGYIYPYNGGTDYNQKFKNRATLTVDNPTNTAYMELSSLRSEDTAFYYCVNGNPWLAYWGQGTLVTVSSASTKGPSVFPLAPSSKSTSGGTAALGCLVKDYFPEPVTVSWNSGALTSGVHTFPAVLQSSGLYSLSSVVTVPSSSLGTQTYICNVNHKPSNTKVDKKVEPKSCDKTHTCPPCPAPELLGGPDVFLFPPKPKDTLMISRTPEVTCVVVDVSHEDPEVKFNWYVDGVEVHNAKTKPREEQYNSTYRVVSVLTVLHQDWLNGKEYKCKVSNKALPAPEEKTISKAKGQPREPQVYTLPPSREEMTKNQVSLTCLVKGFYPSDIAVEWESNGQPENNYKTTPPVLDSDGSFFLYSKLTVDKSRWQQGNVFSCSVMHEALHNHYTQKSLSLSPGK
light: B2 light
notes: Same as m7 with the Fc-engineered IgG1 constant region (S239D, I332E); also called Fc-engineered mAB

Key:
CD47 [1] = biological target: T1, CD47 (human, UniProt Q08722 19-323); experiment: flow cytometry titration on CHO.exCD47 cells, anti-HIS ALEXA-488 detection, n=3
T1 construct: whole, on cells; Species is stated as human for the transfected CHO line; also called human CD47; CHO.exCD47

CD33 [2] = biological target: T2, CD33 (human, UniProt P20138 18-364); experiment: column 'KD MOLM-13': flow cytometry on MOLM-13 cells (CD33+ CD47+), KD as an avidity value
T2 construct: whole, on cells; Species is stated as human for the transfected lines; also called human CD33; CHO.exCD33
T2 sequence (P20138 18-364): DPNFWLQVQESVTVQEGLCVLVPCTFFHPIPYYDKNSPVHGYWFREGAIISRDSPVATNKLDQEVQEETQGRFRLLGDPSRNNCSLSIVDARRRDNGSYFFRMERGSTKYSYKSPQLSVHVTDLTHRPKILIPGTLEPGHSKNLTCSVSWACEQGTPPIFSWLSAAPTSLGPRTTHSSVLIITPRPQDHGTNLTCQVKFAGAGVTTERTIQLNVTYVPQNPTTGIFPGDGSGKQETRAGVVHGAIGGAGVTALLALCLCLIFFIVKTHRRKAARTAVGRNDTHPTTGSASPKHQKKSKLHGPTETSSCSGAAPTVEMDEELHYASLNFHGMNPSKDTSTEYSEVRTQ

CD33 [3] = biological target: T2, CD33; experiment: flow cytometry titration on MOLM-13 cells (CD33+ CD47+), KD as an avidity value
CD47 [4] = biological target: T1, CD47; experiment: cell-based or functional assay
CD33 [5] = biological target: T2, CD33; experiment: column 'KD MOLM-13': calibrated flow cytometry on MOLM-13 cells, KD as an avidity value
Description: (§1) CD33 equilibrium binding constants (KD, as an avidity measurement) of the licMABs and mAb were determined by calibrated flow cytometry analyses as previously described (Benedict et al., 1997; J. Immunol. Methods; 201(2); 223-231). Briefly, MOLM-13 cells were incubated with licMABs or mAb in concentrations ranging from 0.01 to 15 μg/ml and stained with a FITC antiHuman IgG Fc (clone HP6017, BioLegend) secondary antibody by flow cytometry. The instrument was calibrated with 3.0-3.4 μm Rainbow Calibration particles of 8 peaks (BioLegend), the maximum MFI value was set to 100% and all data points were normalized accordingly. The assay was performed in quadruplicates and the values were analyzed by non-linear regression using a one-site specific binding model.

CD33 [6] = biological target: T2, CD33; experiment: calibrated flow cytometry titration on MOLM-13 cells, KD as an avidity value
Description: as §1

CD33 [7] = biological target: T2, CD33; experiment: calibrated flow cytometry titration on MOLM-13 cells, KD as an avidity value; panel 'KD determination of Fc-engineered licMABs'
Description: as §1

Binder | Kd (CD47 [1]) [nM] | Kd (CD33 [2]) [nM] | Kd (CD33 [3]) [nM] | EC50 (concentration of half maximum lysis), redirected lysis of MOLM 13 cells by expanded PBMC effector cells, E:T 2:1, 4 h (CD47 [4]) [nM] | Kd (CD33 [5]) [nM] | Kd (CD33 [6]) [nM] | Kd (CD33 [7]) [nM]
B1 | 21 | 30 | 30 | 0.0015 |  |  | 
B2 |  |  |  |  | 3 | 3 | 
B3 |  |  |  |  | 2 |  | 2
